{"source": "patent US10105414B2", "about": "“Peptides derived from RS1 which down-regulate glucose absorption after a glucose rich meal and increase insulin sensitivity” (Julius-Maximilians-Universität Würzburg, priority 2014, dated 2018)", "molecules": {"B1": {"name": "hRS1-Reg(S45A): hRS1-Reg with serine 45 replaced by alanine to prevent phosphorylation (protein)", "chain": "SSGQSPDVGNPMSLARSVSASVCPIKPSDADRIEPKAVKALKASAEFQLNSEKKEHLSLQDLSDHASSADHAPTDQSPAMPMQ", "modifications": "left off: small tags and cut ends", "notes": "hRS1-Reg with serine 45 replaced by alanine to prevent phosphorylation"}, "B2": {"name": "hRS1-Reg(S20E): hRS1-Reg, the first/N-terminal QSP motive is replaced by QEP (SEQ ID No. 9) (protein)", "chain": "SSGQEPDVGNPMSLARSVSASVCPIKPSDSDRIEPKAVKALKASAEFQLNSEKKEHLSLQDLSDHASSADHAPTDQSPAMPMQ", "modifications": "hRS1-Reg(S20E)"}, "B3": {"name": "hRS1-Reg(S20A): hRS1-Reg mutant preventing phosphorylation at serine in position 20 (protein)", "chain": "SSGQAPDVGNPMSLARSVSASVCPIKPSDSDRIEPKAVKALKASAEFQLNSEKKEHLSLQDLSDHASSADHAPTDQSPAMPMQ", "modifications": "left off: small tags and cut ends"}, "B4": {"name": "hRS1-Reg(S45E): hRS1-Reg with serine 45 replaced by glutamate to mimick phosphorylation (protein)", "chain": "SSGQSPDVGNPMSLARSVSASVCPIKPSDEDRIEPKAVKALKASAEFQLNSEKKEHLSLQDLSDHASSADHAPTDQSPAMPMQ", "modifications": "left off: small tags and cut ends", "notes": "hRS1-Reg with serine 45 replaced by glutamate to mimick phosphorylation"}, "B5": {"name": "mRS1-Reg(S19E): mRS1-Reg, first/N-terminal QSP motive replaced by QEP (SEQ ID No. 10), coupled to hydrogel nanoparticles for gavage (protein)", "chain": "PSGQEPEVGSPTSLARSVSASVCAIKPGDPNSIESLAMEATKASAEFQTNSKKTDPPPLQVLPDLASSAEQSLAMPFH", "modifications": "coupled to hydrogel nanoparticles; mRS1-Reg(S19E)"}}, "key": {"hSGLT1 [1]": {"test_system": "hSGLT1", "experiment": "hSGLT1-mediated AMG uptake in Xenopus laevis oocytes 1 h after injection of peptides", "format": "cell-based, human", "details": "for down-regulation of hSGLT1: without injection of AMG (<10 μM); for affinity for down-regulation of hSGLT1 compared with hRS1-Reg wildtype: low intracellular glucose, no AMG injected; for effect of intracellular AMG on the affinity for down-regulation of hSGLT1: without versus with injection of AMG", "protocol": "(§1) Selected oocytes were injected with 50 nl of water containing cRNAs (2.5 ng of hSGLT1 or 0.5 ng of hCNT1). For expression oocytes were incubated for 2-3 days at 16° C. in modified Barth's solution with gentamycin. Noninjected control oocytes were incubated in parallel.\n(§2) Before uptake measurements were started, 50 nl of K-Ori buffer containing peptides, polypeptides, 1 pM of calmodulin stimulated kinase 2 (CK2) inhibitor KN93 (Calbiochem San Diego. Calif.), 3 mM of the omithinedecarboxlase inhibitor difluoromethylornithine DFMO and/or or 100 pmol α-methyl-α-D-glucopyranoside (AMG) were injected and the oocytes were incubated for 1 h at room temperature. Uptake was measured in Ori buffer at room temperature. Measurements in transporter expressing oocytes were corrected for measurements in noninjected oocytes. Uptake of 50 μM [^14C]AMG was measured after 15 min incubation and washing in ice-cold Ori buffer containing 1 mM phlorizin. Uptake of 5 μM [^3H]uridine was measured after 15 min incubation and washing in ice-cold Ori buffer. Oocytes were solubilized in 5% (w/v) SDS and analyzed for radioactivity by scintillation counting.\n(§3) For comparison of mean values from 2 groups the Student's t-test for unpaired samples was employed."}, "mSGLT1 [2]": {"test_system": "mSGLT1", "details": "5 mM tripeptide, 30 min, 37° C., 5 mM D-glucose", "protocol": "(§4) Standardised t areas of human small intestinal mucosa (FIGS. 13,19) or 1 cm segments of everted mouse small intestine (FIGS. 14,15,20) were washed three times at 37° C. with Krebs-Ringer buffer containing 5 mM D-glucose and incubated for 30 min at 37° C. in Krebs-Ringer buffer containing 5 mM D-glucose plus different concentrations of tripeptides. Thereafter the tissue was washed three times at 0° C. in Krebs-Ringer buffer without glucose and uptake measurements were performed.\n(§5) For measurement of SGLT1 mediated glucose uptake, the everted segments of mouse small intestine or defined areas of human mucosa were incubated for 2 min at 37° C. with Krebs-Ringer buffer containing 10 μM [^14C]AMG with or without 0.2 mM phlorizin. Uptake was stopped by transferring the segments into ice cold Krebs-Ringer buffer containing 0.2 mM phlorizin for 5 min. After washing with ice cold Krebs-Ringer buffer the intestinal segments or pieces of human mucosa were dissolved in 0.5 ml Soluence-350) (Perkin Elmer Inc. Waltham Mass., USA). Radioactivity was analysed by liquid scintillation counting. Phlorizin inhibited AMG uptake per cm length or per standard area of the mucosa was calculated.\nThereafter the segments were washed with PBS buffer and phlorizin inhibited uptake of 10 μM [^14C]AMG was measured."}, "hSGLT1 [3]": {"test_system": "hSGLT1", "details": "5 mM D-glucose, 30 min", "protocol": "Jejunal segments which were routinely dissected during bariatric operations of highly obese patients were stored for 1-3 h on ice in Dulbecco's modified Eagle's medium containing 5 mM D-glucose. The mucosa was isolated and circular areas of the mucosa were dissected using a punching instrument.\nas §4, §5\nNext, it was investigated which of the QXP-type tripeptides are capable to downregulate hSGLT1 expression in human small intestine in the presence of high glucose. Jejunal samples that were obtained during bariatric surgery of obese patients (males and females with a mean age of 50 years with a mean body mass index of 50) were used. […] A part of the jejumum which is routinely removed during bariatric surgery, was carried to the laboratory using ice-cold culture medium containing 6 mM D-glucose. Part of the mucosa was dissected and identical areas of the mucosa were isolated using a punching instrument. The mucosal pieces were washed with glucose free buffer and incubated for 30 min at 37° C. in tissue culture medium (pH 6.4) containing 5 mM D-glucose and different QXP-type tripeptides. Thereafter the sample were washed two times with PBS buffer (pH 7.4, 37° C.) and incubated for 2 min at 37° C. in PBS (pH 7.4) containing 100 mM sodium and 10 μM [^14C]AMG. The incubation was performed in the absence and presence of 200 μM of the SGLT1 inhibitor phlorizin. Thereafter the samples were washed with ice-cold PBS, the tissue was dissolved, and radioactivity was determined by liquid scintillation counting. The phorizin inhibited AMG uptake was calculated."}, "hCNT1": {"test_system": "hCNT1", "experiment": "hCNT1-mediated uridine uptake in Xenopus laevis oocytes after injection of peptides", "format": "cell-based, human", "details": "no AMG injected", "protocol": "as §1, §2, §3"}, "hCNT3": {"test_system": "hCNT3", "experiment": "hCNT3-mediated uridine uptake in Xenopus laevis oocytes after injection of peptides", "format": "cell-based, human", "details": "low intracellular glucose, no AMG injected", "protocol": "FIG. 9. […] Posttransciptional downregulation of hCNT1 and hCNT3 was measured without injection of AMG. […] One hour later uptake of 5 μM [^3H]uridine was measured.\nas §2"}, "mSGLT1 [4]": {"test_system": "mSGLT1", "experiment": "Phlorizin inhibited AMG uptake into everted small intestine after gavage of mice with mRS1-Reg coupled to hydrogel nanoparticles", "format": "in vivo, mouse", "details": "gavage 1 nmol coupled to nanoparticles, 2 h", "protocol": "Inversed miniemulsions were prepared from 2.5 ml hexane containing 50.3 mg Span 80 (Sigma, Taufkirchen, Germany) and 16.7 mg TWEEN 80™ (Sigma) and 0.4 ml 20 mM Hepes pH 7.4 containing 100 mg of thiol-functionalized linear poly(glycidol) polymer (Groll (2009) Journal of Polymer Science 47,5543-5549), 0.5 mg […] (TAT-peptide, Peptides International, Louisville, Ky., USA), and 0.28 mg cysteine-terminated RS1-Reg peptide. In control nanohydrogels the RS1-Reg peptide was omitted. The nanogels were prepared as described (Groll (2009) Journal of Polymer Science 47,5543-5549). Shortly, the organic and aqueous phase were combined, stirred, and a miniemulsion was prepared by ultrasonication at 0° C. For formation of disulphide bridges 60 μL of 0.1 M H2O2 in water were added. The mixture was sonicated for 60 s and incubated for 25 min at room temperature. Oxidation was quenched by acidification and the nanogels were separated by centrifugation. The aqueous layer containing the nanogels was separated and washed four times with a tetrahydrofuran/water (20%/80%)-mixture to remove the surfactants and unreacted polymer. Remaining organic solvents and acid were removed by dialysis against water. The nanohydrogel suspension was stored up to two weeks stored at 4° C.\nMale Rs1−/− mice or wildtype mice (Osswald (2005) Mol Cell Biol. 25, 78-87) kept on standard diet were starved over night and gavaged with 200 μl water (adjusted with HCl to pH 5.5) containing 10 mg nanohydrohydrogel that was loaded with 45 μg mRS1-Reg mutant. As a control unloaded nanohydrogel was used. […] The jejunum was cut into 1 cm long segments.\nRadioactivity was analysed by liquid scintillation counting.\nRS1−/− mice starved overnight were gavaged with 200 μl empty NPs (control) or 200 μl NPs loaded with 1 nmol mRS1-Reg(S19A) or 1 nmol mRS1-Reg(S19E). […] 2 h after gavage with mRS1-Reg mutants coupled to NPs, phlorizin (200 μM) Inhibited uptake of 10 μM AMG labelled containing tracer [^14C]AMG after 2 min incubation at 37° C. (FIG. 21A, C) or uptake of 1 mM AMG labelled with tracer [^14C]AMG after 2 min incubation at 37° C. was measured (FIG. 21B, D). […] Since AMG is rapidly transported by mSGLT1 into the enterocytes the intracellular concentration increases within seconds to values higher than 0.25 mM when the cells were incubated with 1 mM AMG. […] In contrast phlorizin-inhibited uptake of 10 μM AMG or 1 mM AMG was inhibited by 26 and 30% respectively. […] The data further indicate that gavage of a mouse with 1 nmol mRS1-Reg(S19E) is sufficient to downregulate SGLT1 in the presence of low and high intracelluar glucose."}, "[5]": {"details": "5 pM, intracellular AMG ~0.25 mM"}}, "note": "Like-named read-outs stand apart in the source and are kept apart here.", "data": [{"molecule": "glutamine-serinethiophosphate-proline [QSthiophosphateP]", "values": [{"measurement": "degree of down-regulation of hSGLT1", "setting": "hSGLT1 [1]; [5]", "result": "~75", "unit": "%"}, {"measurement": "down-regulation of hSGLT1 expression", "setting": "hSGLT1 [1]; [5]", "result": "down-regulated"}, {"measurement": "down-regulation of hSGLT1", "setting": "hSGLT1 [1]; 5 pM", "result": "not"}, {"measurement": "down-regulation of hSGLT1 expression", "setting": "hSGLT1 [1]; 500 pM, intracellular AMG ~0.25 mM", "result": "down-regulated"}, {"measurement": "down-regulation of hSGLT1", "setting": "hSGLT1 [1]; 500 pM", "result": "down-regulated"}, {"measurement": "decrease of SGLT1 mediated uptake of 10 μM [14C]AMG", "setting": "mSGLT1 [2]; RS1−/− mice", "result": "significantly inhibited"}, {"measurement": "decrease of SGLT1 mediated uptake of 10 μM [14C]AMG", "setting": "mSGLT1 [2]; wildtype mice", "result": "significantly inhibited"}, {"measurement": "down-regulation of hSGLT1 mediated AMG uptake", "setting": "hSGLT1 [3]; 5 mM", "result": "~30", "unit": "%"}, {"measurement": "down-regulation of hSGLT1 mediated AMG uptake", "setting": "hSGLT1 [3]; 15 mM", "result": "~40", "unit": "%"}]}, {"molecule": "SDSDRIEP [octapeptide corresponding to a particular motif of human RS1, reference compound]", "values": [{"measurement": "uptake of 5 μM [3H]uridine expressed by hCNT1", "setting": "hCNT1; low intracellular glucose", "result": "decreased"}, {"measurement": "uptake of 5 μM [3H]uridine expressed by hCNT3", "setting": "hCNT3", "result": "decreased"}]}, {"molecule": "B1", "values": [{"measurement": "affinity for down-regulation of hSGLT1 compared with hRS1-Reg wildtype", "setting": "hSGLT1 [1]", "result": "similar"}, {"measurement": "effect of intracellular AMG on the affinity for down-regulation of hSGLT1", "setting": "hSGLT1 [1]", "result": "abolished"}]}, {"molecule": "B2", "values": [{"measurement": "affinity for down-regulation of hSGLT1 higher than hRS1-Reg wildtype", "setting": "hSGLT1 [1]; high intracellular glucose (AMG ~250 μM)", "result": 15, "unit": "Mill"}, {"measurement": "increase of affinity (decrease of IC50) for down-regulation of hSGLT1 at high versus low intracellular AMG", "setting": "hSGLT1 [1]; intracellular AMG ~250 μM versus low", "result": 300, "unit": "fold"}]}, {"molecule": "B3", "values": [{"measurement": "affinity for down-regulation of hSGLT1 compared with hRS1-Reg wildtype", "setting": "hSGLT1 [1]", "result": "does not alter the affinity"}]}, {"molecule": "B4", "values": [{"measurement": "affinity for down-regulation of hSGLT1 compared with hRS1-Reg wildtype", "setting": "hSGLT1 [1]", "result": "increases affinity"}, {"measurement": "effect of intracellular AMG on the affinity for down-regulation of hSGLT1", "setting": "hSGLT1 [1]", "result": "abolished"}, {"measurement": "affinity for down-regulation of hCNT1 compared with hRS1-Reg wildtype", "setting": "hCNT1", "result": "similar"}, {"measurement": "effect of mimicking phosphorylation in position 45 on affinity for down-regulation of hCNT1", "setting": "hCNT1", "result": "decreases affinity"}]}, {"molecule": "B5", "values": [{"measurement": "inhibition of phlorizin-inhibited uptake of 10 μM AMG", "setting": "mSGLT1 [4]; RS1−/− mice", "result": 26, "unit": "%"}, {"measurement": "inhibition of phlorizin-inhibited uptake of 1 mM AMG", "setting": "mSGLT1 [4]; RS1−/− mice", "result": 30, "unit": "%"}, {"measurement": "decrease of uptake of 1 mM AMG (high intracellular glucose)", "setting": "mSGLT1 [4]; wild type mice", "result": 40, "unit": "%"}, {"measurement": "uptake of 10 μM AMG (low intracellular glucose)", "setting": "mSGLT1 [4]; wild type mice", "result": "not altered"}]}]}
